Values of other authors, collected in US20250009916A1, “COMBINATION THERAPY FOR TREATING LUNG CANCER” (Novartis AG, priority 2021, published 2025).
Like-named read-outs stand apart in the source and are kept apart here.

How the values were obtained:
GEP-NET = details: cited from earlier work
[1] = 100 mCi dose; patients pretreated, with risk factors or abnormal renal and bone marrow function; cited from earlier work
[2] = in vivo; cited from earlier work
ES-SCLC [3] = details: ES-SCLC patients, first-line, IMPower133; cited from earlier work
[4] = cited from earlier work
[5] = cited from earlier work; remark: listed apart in the source
SCLC = details: cited from earlier work
advanced solid tumors = details: cited from earlier work
ES-SCLC [6] = details: ES-SCLC patients, durvalumab arm, CASPIAN; cited from earlier work
[7] = 4 doses of 7.4 GBq/200 mCi every 8 weeks, GEP-NET patients
[8] = 200-mg fixed dose cohort, evaluable n=13
[9] = 17 SCLC patients, plus cisplatin/carboplatin and etoposide Q3W

For “Lutetium (^177Lu) oxodotreotide [[^177Lu] Lu-DOTA-TATE]”, the “progression free survival and quality of life with approved regimen” value (GEP-NET; [7]) is given as “significant improvement of progression free survival (PFS) and quality of life”, the “safety of approved regimen” value (GEP-NET; [7]) is given as “safe” and the median overall survival (GEP-NET; GEP-NET patients, phase 3 NETTER-1) is given as 48 months. The “safety of additional doses exceeding 800 mCi cumulative dose” value (GEP-NET; literature) was “without additional safety signals”, the tolerability [1] was “favorable tolerability” and the elimination route [2] was “mainly via the renal route”. The “interaction with drug transporters” value [2] was “does not interact with drug transporters” and the metabolization [2] was “very low (if any)”.

In the case of “atezolizumab: immune checkpoint inhibitor antibody (Roche)”, the PFS (ES-SCLC [3]) is given as 5.2 months.

In the case of “tislelizumab: anti-PD-1 monoclonal antibody (Beigene), heavy chain SEQ ID NO: 1, light chain SEQ ID NO: 5”, the “rates of treatment-related adverse events and serious adverse events across regimens” value ([4]; 2 mg/kg and 5 mg/kg, once every 2 weeks and once every 3 weeks) is given as “comparable”, the “treatment-related adverse events versus body-weight-based cohorts” value ([4]; 200-mg fixed dose cohort, Phase Ia Part 3) is given as “no unexpected treatment-related adverse events” and the “patients with BOR of partial response (PR)” value [4, 8] is given as 23%. The “patients with BOR of progressive disease (PD)” value [4, 8] was 46%, the “patients with BOR of stable disease” value [4, 8] was 31% and the serum exposure ([5]; 200-mg dose) was “fell between serum exposure observed after 2 mg/kg and 5 mg/kg doses”. The CL ([5]; Phase Ia) was “independent of body weight, ethnicity, and gender”, the ORR (SCLC; [9]) was 77% and the “median OS” value (SCLC; [9]) was 15.6 months. For the same substance, the “median PFS” value (SCLC; [9]) was 6.9 months, the antitumor activity (SCLC; tislelizumab 200 mg with platinum-based chemotherapy, including SCLC group) was “Encouraging antitumor activity” and the tolerability (SCLC; tislelizumab 200 mg with platinum-based chemotherapy) was “generally well tolerated”. For the same substance, the “safety signals in combination with standard-of-care chemotherapies” value (advanced solid tumors; first-line lung cancer) was “did not lead to new safety signals” and the safety profile (advanced solid tumors; monotherapy or combined with platinum-based chemotherapy) was “manageable safety profile”.

For durvalumab: PD-L1 inhibitor, the PFS (ES-SCLC [6]) is given as 5.1 months.
